Experimental data from US20200377590A1 (Hoffmann-La Roche, published 2020).

Molecular target: T1, CD81 (UniProt P60033 1-236, limits assumed)
T1 construct: whole, on cells; also called CD81 receptor
T1 sequence (looked up): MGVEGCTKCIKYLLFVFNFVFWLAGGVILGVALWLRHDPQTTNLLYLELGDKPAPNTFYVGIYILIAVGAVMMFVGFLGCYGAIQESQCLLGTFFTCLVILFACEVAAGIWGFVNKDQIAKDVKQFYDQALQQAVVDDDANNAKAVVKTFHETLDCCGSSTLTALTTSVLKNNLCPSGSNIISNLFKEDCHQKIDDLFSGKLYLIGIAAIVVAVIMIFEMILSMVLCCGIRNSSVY
Experiment: cell ELISA;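 further: antibody binding to HuH7 cells expressing CD81 versus a CD81-negative HuH7 control line, bound antibody detected by secondary reagent, absorbance at 450 nm with 620 nm reference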

B1: CD81K13 HC 01-hVH_1_f / LC CD81K13 (antibody, V domains shown)
VH: EVQLVQSGAEVKKPGATVKISCKVSGYTFTDSYMHWVQQAPGKGLEWMGRIDTGNGNVKFDPKFQGRVTITADTSTDTAYMELSSLRSEDTAVYYCAPYGYGFHSWGQGTLVTVSS
VL: DIQMTQSPASLSVSVGETVTITCRASENIYRTLAWYLQKQGKSPQLLVYGATTLADGVPSRFSGSGSGTQYYLKINSLQSEDFGTYHCQHFWGTPWTFGGGTKVEIK
notes: human constant region
- ELISA data: 0.272

B2: CD81K13 HC 01-hVH_1_f / LC 05-hVK_1_39 (antibody, V domains shown)
VH: EVQLVQSGAEVKKPGATVKISCKVSGYTFTDSYMHWVQQAPGKGLEWMGRIDTGNGNVKFDPKFQGRVTITADTSTDTAYMELSSLRSEDTAVYYCAPYGYGFHSWGQGTLVTVSS
VL: DIQMTQSPSSLSASVGDRVTITCRASENIYRTLAWYQQKPGKAPKLLIYAATTLASGVPSRFSGSGSGTDFTLTISSLQPEDFATYYCQHFWGTPWTFGQGTKVEIK
notes: human constant region
- ELISA data: 0.458

B3: CD81K13 HC 01-hVH_1_f / LC 07-hVK_1_27 (antibody, V domains shown)
VH: EVQLVQSGAEVKKPGATVKISCKVSGYTFTDSYMHWVQQAPGKGLEWMGRIDTGNGNVKFDPKFQGRVTITADTSTDTAYMELSSLRSEDTAVYYCAPYGYGFHSWGQGTLVTVSS
VL: DIQMTQSPSSLSASVGDRVTITCRASENIYRTLAWYQQKPGKVPKLLIYAATTLASGVPSRFSGSGSGTDFTLTISSLQPEDVGTYYCQKFWGTPWTFGQGTKVEIK
notes: human constant region
- ELISA data: 0.086

B4: CD81K13 HC 01-hVH_1_f / LC 03-hVK_1_9 (antibody, V domains shown)
VH: EVQLVQSGAEVKKPGATVKISCKVSGYTFTDSYMHWVQQAPGKGLEWMGRIDTGNGNVKFDPKFQGRVTITADTSTDTAYMELSSLRSEDTAVYYCAPYGYGFHSWGQGTLVTVSS
VL: DIQLTQSPSFLSASVGDRVTITCRASENIYRTLAWYQQKPGKAPKLLIYAATTLASGVPSRFSGSGSGTEFTLTISSLQPEDFATYYCQHFWGTPWTFGQGTKVEIK
notes: human constant region
- ELISA data: 0.294

B5: CD81K13 HC 01-hVH_1_f / LC 04-hVK_1_9 (antibody, V domains shown)
VH: EVQLVQSGAEVKKPGATVKISCKVSGYTFTDSYMHWVQQAPGKGLEWMGRIDTGNGNVKFDPKFQGRVTITADTSTDTAYMELSSLRSEDTAVYYCAPYGYGFHSWGQGTLVTVSS
VL: DIQLTQSPSFLSASVGDRVTITCRASENIYRTLAWYQQKPGKAPKLLIYAATTLASGVPSRFSGSGSGTEFTLTISSLQPEDFGTYYCQHFWGTPWTFGQGTKVEIK
notes: human constant region
- ELISA data: 0.244

B6: CD81K13 HC 02-hVH_1_3 / LC CD81K13 (antibody, V domains shown)
VH: QVQLVQSGAEVKKPGASVKVSCKASGYTFTDSYMHWVRQAPGQRLEWMGRIDTGNGNTKYSQKFQGRVTITTDTSASTAYMELSSLRSEDTAVYYCAPYGYGFHSWGQGTLVTVSS
VL: DIQMTQSPASLSVSVGETVTITCRASENIYRTLAWYLQKQGKSPQLLVYGATTLADGVPSRFSGSGSGTQYYLKINSLQSEDFGTYHCQHFWGTPWTFGGGTKVEIK
notes: human constant region
- ELISA data: 0.585

B7: CD81K13 HC 01-hVH_1_f / LC 5b-hVK_1_39 (antibody, V domains shown)
VH: EVQLVQSGAEVKKPGATVKISCKVSGYTFTDSYMHWVQQAPGKGLEWMGRIDTGNGNVKFDPKFQGRVTITADTSTDTAYMELSSLRSEDTAVYYCAPYGYGFHSWGQGTLVTVSS
VL: DIQMTQSPSSLSASVGDRVTITCRASENIYRTLAWYQQKPGKAPKLLIYGATTLADGVPSRFSGSGSGTDFTLTISSLQPEDFATYYCQHFWGTPWTFGQGTKVEIK
notes: human constant region
- ELISA data: 0.89

B8: CD81K13 HC 01-hVH_1_f / LC 06-hVK_1_39 (antibody, V domains shown)
VH: EVQLVQSGAEVKKPGATVKISCKVSGYTFTDSYMHWVQQAPGKGLEWMGRIDTGNGNVKFDPKFQGRVTITADTSTDTAYMELSSLRSEDTAVYYCAPYGYGFHSWGQGTLVTVSS
VL: DIQMTQSPSSLSASVGDRVTITCRASENIYRTLAWYQQKPGKAPKLLIYAATTLASGVPSRFSGSGSGTDFTLTISSLQPEDFGTYYCQHFWGTPWTFGQGTKVEIK
notes: human constant region
- ELISA data: 0.822

B9: CD81K13 HC 01-hVH_1_f / LC 5b-hVK_1_39-GA (antibody, V domains shown)
VH: EVQLVQSGAEVKKPGATVKISCKVSGYTFTDSYMHWVQQAPGKGLEWMGRIDTGNGNVKFDPKFQGRVTITADTSTDTAYMELSSLRSEDTAVYYCAPYGYGFHSWGQGTLVTVSS
VL: DIQMTQSPSSLSASVGDRVTITCRASENIYRTLAWYQQKPGKAPKLLIYGATTLADGVPSRFSGSGSGTDFTLTISSLQPEDFATYYCQHFWGTPWTFGQGTKVEIK
notes: human constant region
- ELISA data: 0.848

B10: CD81K13 HC CD81K13 / LC 1b-hVK_3_15 (antibody, V domains shown)
VH: EVRLHQSAAQLVQPGASVRLSCTTSGFNFKDSYLHWVKQRPAQGLEWIGRIDTGNGNVKFDPKFQDKATITTDIPSMTAYLHLSNLTSEDTAVYYCVPYGYGFHSWGDGTTLTVSS
VL: EIVMTQSPATLSVSPGERATLSCRASENIYRTLAWYQQKPGQAPRLLIYGATTLADGIPARFSGSGSGTEFTLTISSLQSEDFAVYYCQHFWGTPWTFGQGTKVEIK
notes: human constant region
- ELISA data: 0.86

B11: CD81K13 HC 02-hVH_1_3 / LC 01-hVK_3_15 (antibody, V domains shown)
VH: QVQLVQSGAEVKKPGASVKVSCKASGYTFTDSYMHWVRQAPGQRLEWMGRIDTGNGNTKYSQKFQGRVTITTDTSASTAYMELSSLRSEDTAVYYCAPYGYGFHSWGQGTLVTVSS
VL: EIVMTQSPATLSVSPGERATLSCRASENIYRTLAWYQQKPGQAPRLLIYGATTRATGIPARFSGSGSGTEFTLTISSLQSEDFGVYYCQHFWGTPWTFGQGTKVEIK
notes: human constant region
- ELISA data: 0.314

B12: CD81K13 HC 01-hVH_1_f / LC 1b-hVK_3_15 (antibody, V domains shown)
VH: EVQLVQSGAEVKKPGATVKISCKVSGYTFTDSYMHWVQQAPGKGLEWMGRIDTGNGNVKFDPKFQGRVTITADTSTDTAYMELSSLRSEDTAVYYCAPYGYGFHSWGQGTLVTVSS
VL: EIVMTQSPATLSVSPGERATLSCRASENIYRTLAWYQQKPGQAPRLLIYGATTLADGIPARFSGSGSGTEFTLTISSLQSEDFAVYYCQHFWGTPWTFGQGTKVEIK
notes: human constant region
- ELISA data: 0.392

B13: CD81K13 HC CD81K13 / LC 05-hVK_1_39 (antibody, V domains shown)
VH: EVRLHQSAAQLVQPGASVRLSCTTSGFNFKDSYLHWVKQRPAQGLEWIGRIDTGNGNVKFDPKFQDKATITTDIPSMTAYLHLSNLTSEDTAVYYCVPYGYGFHSWGDGTTLTVSS
VL: DIQMTQSPSSLSASVGDRVTITCRASENIYRTLAWYQQKPGKAPKLLIYAATTLASGVPSRFSGSGSGTDFTLTISSLQPEDFATYYCQHFWGTPWTFGQGTKVEIK
notes: human constant region
- ELISA data: 0.886

B14: CD81K13 HC 01-hVH_1_f / LC 01-hVK_3_15 (antibody, V domains shown)
VH: EVQLVQSGAEVKKPGATVKISCKVSGYTFTDSYMHWVQQAPGKGLEWMGRIDTGNGNVKFDPKFQGRVTITADTSTDTAYMELSSLRSEDTAVYYCAPYGYGFHSWGQGTLVTVSS
VL: EIVMTQSPATLSVSPGERATLSCRASENIYRTLAWYQQKPGQAPRLLIYGATTRATGIPARFSGSGSGTEFTLTISSLQSEDFGVYYCQHFWGTPWTFGQGTKVEIK
notes: human constant region
- ELISA data: 0.527

B15: CD81K13 HC 01-hVH_1_f / LC 1c-hVK_3_15 (antibody, V domains shown)
VH: EVQLVQSGAEVKKPGATVKISCKVSGYTFTDSYMHWVQQAPGKGLEWMGRIDTGNGNVKFDPKFQGRVTITADTSTDTAYMELSSLRSEDTAVYYCAPYGYGFHSWGQGTLVTVSS
VL: EIVMTQSPATLSVSPGERATLSCRASENIYRTLAWYQQKPGQAPRLLIYGATTLADGIPARFSGSGSGTEFTLTISSLQSEDFGVYYCQHFWGTPWTFGQGTKVEIK
notes: human constant region
- ELISA data: 0.617

B16: CD81K13 HC CD81K13 / LC 04-hVK_1_9 (antibody, V domains shown)
VH: EVRLHQSAAQLVQPGASVRLSCTTSGFNFKDSYLHWVKQRPAQGLEWIGRIDTGNGNVKFDPKFQDKATITTDIPSMTAYLHLSNLTSEDTAVYYCVPYGYGFHSWGDGTTLTVSS
VL: DIQLTQSPSFLSASVGDRVTITCRASENIYRTLAWYQQKPGKAPKLLIYAATTLASGVPSRFSGSGSGTEFTLTISSLQPEDFGTYYCQHFWGTPWTFGQGTKVEIK
notes: human constant region
- ELISA data: 0.851

B17: CD81K13 HC CD81K13 / LC 07-hVK_1_27 (antibody, V domains shown)
VH: EVRLHQSAAQLVQPGASVRLSCTTSGFNFKDSYLHWVKQRPAQGLEWIGRIDTGNGNVKFDPKFQDKATITTDIPSMTAYLHLSNLTSEDTAVYYCVPYGYGFHSWGDGTTLTVSS
VL: DIQMTQSPSSLSASVGDRVTITCRASENIYRTLAWYQQKPGKVPKLLIYAATTLASGVPSRFSGSGSGTDFTLTISSLQPEDVGTYYCQKFWGTPWTFGQGTKVEIK
notes: human constant region
- ELISA data: 0.199

B18: CD81K13 HC CD81K13 / LC 06-hVK_1_39 (antibody, V domains shown)
VH: EVRLHQSAAQLVQPGASVRLSCTTSGFNFKDSYLHWVKQRPAQGLEWIGRIDTGNGNVKFDPKFQDKATITTDIPSMTAYLHLSNLTSEDTAVYYCVPYGYGFHSWGDGTTLTVSS
VL: DIQMTQSPSSLSASVGDRVTITCRASENIYRTLAWYQQKPGKAPKLLIYAATTLASGVPSRFSGSGSGTDFTLTISSLQPEDFGTYYCQHFWGTPWTFGQGTKVEIK
notes: human constant region
- ELISA data: 0.811

B19: CD81K13 HC CD81K13 / LC 5b-hVK_1_39-GA (antibody, V domains shown)
VH: EVRLHQSAAQLVQPGASVRLSCTTSGFNFKDSYLHWVKQRPAQGLEWIGRIDTGNGNVKFDPKFQDKATITTDIPSMTAYLHLSNLTSEDTAVYYCVPYGYGFHSWGDGTTLTVSS
VL: DIQMTQSPSSLSASVGDRVTITCRASENIYRTLAWYQQKPGKAPKLLIYGATTLADGVPSRFSGSGSGTDFTLTISSLQPEDFATYYCQHFWGTPWTFGQGTKVEIK
notes: human constant region
- ELISA data: 0.751

B20: CD81K13 HC CD81K13 / LC 03-hVK_1_9 (antibody, V domains shown)
VH: EVRLHQSAAQLVQPGASVRLSCTTSGFNFKDSYLHWVKQRPAQGLEWIGRIDTGNGNVKFDPKFQDKATITTDIPSMTAYLHLSNLTSEDTAVYYCVPYGYGFHSWGDGTTLTVSS
VL: DIQLTQSPSFLSASVGDRVTITCRASENIYRTLAWYQQKPGKAPKLLIYAATTLASGVPSRFSGSGSGTEFTLTISSLQPEDFATYYCQHFWGTPWTFGQGTKVEIK
notes: human constant region
- ELISA data: 0.949

B21: CD81K13 HC CD81K13 / LC 5b-hVK_1_39 (antibody, V domains shown)
VH: EVRLHQSAAQLVQPGASVRLSCTTSGFNFKDSYLHWVKQRPAQGLEWIGRIDTGNGNVKFDPKFQDKATITTDIPSMTAYLHLSNLTSEDTAVYYCVPYGYGFHSWGDGTTLTVSS
VL: DIQMTQSPSSLSASVGDRVTITCRASENIYRTLAWYQQKPGKAPKLLIYGATTLADGVPSRFSGSGSGTDFTLTISSLQPEDFATYYCQHFWGTPWTFGQGTKVEIK
notes: human constant region
- ELISA data: 0.594
